Reference: US20250339531A1, “DUX4 POLYPEPTIDES AND NUCLEIC ACIDS FOR TREATING INFLAMMATORY AND AUTOIMMUNE CONDITIONS” (Fred Hutchinson Cancer Center, priority 2021, published 2025)

Tested on: proteins that co-immunoprecipitated with DUX4-CTD constructs expressed in MB135 myoblasts
Assay: LC-MS of proteins co-immunoprecipitated with DUX4-CTD (Table 1) and western validation
Assay type: binding, human
Set-up: key to 4. mL1dL2 + Dox + IFNG / 4. + IFNG mix / 4. longCTD + Dox + IFNG / 3. + IFNg + Dox longCTD / 3. + Dox longCTD / 3. + IFNG longCTD: peptide-spectrum matches (PSMs) per protein
Conditions: kind of count not given; for 4. + IFNG mix: LC-MS value per protein co-immunoprecipitated from MB135 myoblasts, + IFNG mix sample (no Dox); for 4. mL1dL2 + Dox + IFNG: LC-MS value per protein co-immunoprecipitated with DUX4-CTD construct mL1dL2 in MB135 myoblasts
Text: As an unbiased method to identify proteins that interact with the C-terminal region of DUX4, liquid chromatography mass spectroscopy (LC-MS) was used to identify proteins that co-immunoprecipitated with DUX4-CTD constructs expressed in MB135 myoblasts. In the first experiment, MB135iDUX4-CTD cells were used, either untreated, treated with doxycycline alone, or with both doxycycline and IFNG. In the second experiment, MB135iDUX4-CTD and MB135iDUX4mL1dL2 cells were used, both treated with doxycycline and IFNG, compared to these two cell lines untreated and combined as a control. Proteins with a minimum of 2 peptide spectrum matches (PSMs) in at least one sample that were identified in both experiments were assigned to one of ten categories (see Methods) to separate candidate interactors from other categories that might be co-purified because of obligate interactions (e.g., proteasome or ribosome) or might be less likely to be physiologically relevant (e.g., cytoskeletal proteins). Candidate interactors were then ranked based on the total PSMs for that protein across all samples.
Centrifugation at 2500 rcf at 4° C. for 5 min pelleted the nuclei, supernatant was discarded, and nuclei resuspended in 1 mL IP buffer pH 7.4 (25 mM Tris-HCl pH 7.5, 175 mM NaCl, 1 mM EDTA, 0.2% NP-40, 5% glycerol) and incubated for 1 hour at 4° C. with rotation then spun at 21000 rcf for 10 minutes at 4° C. to pellet insoluble debris. Protein concentration was determined using the Pierce BCA Protein Assay Kit (ThermoFisher, 23225). An equivalent amount of protein per sample was pre-cleared with Dynabeads Protein G (Invitrogen) bound to mouse IgG (Abcam #131368) for 1 hour at 4° C. with rotation. FLAG-tagged constructs were then immunoprecipitated with Dynabeads Protein G beads coupled to mouse anti-FLAG M2 mAb (Sigma F3165) for 3 hours at 4° C. with rotation. Beads were washed 3× with 1 mL IP buffer and eluted by adding 2× NuPage LDS Sample Buffer (Thermo Fisher, diluted from 4× with PBS) to the beads and heating for 10 minutes at 70° C.
For LC-MS, anti-FLAG immunoprecipitation was performed with beads cross-linked to the anti-FLAG antibody and the proteins competitively eluted with FLAG peptide. Eluted protein samples were electrophoresed into a NuPage 4-12% Bis-Tris gel, excised, and processed by the Fred Hutchinson Cancer Research Center Proteomics Core. Samples were reduced, alkylated, digested with trypsin, desalted, and run on the Orbitrap Eclipse Tribid Mass Spectrometer (Thermo Fisher). Proteomics data were analyzed using Proteome Discoverer 2.4 against a Uniprot human database that included common contaminants using Sequest HT and Percolator for scoring. […] Proteins that were identified in at least one sample from both independent experiments with at least 2 PSMs in one sample were assigned to one of ten categories: 1, candidates; 2, cytoskeletal associated; 3, cytoskeletal; 4, ribosome/translation associated; 5, proteasome associated; 6, membrane or extracellular; ER, golgi, or vesicle associated; 8, lipid metabolism; 9, chaperones; 10, nuclear import or nuclear membrane associated. The proteins in category 1 were further investigated for interactions with DUX4.

B1: CFL1 (protein)
chain: MVSPGHGHLRERKELTPHSTNPAAARIWDATYSDGYVRPASGVAVSDGVIKVFNDMKVRKSSTPEEVKKRKKAVLFCLSEDKKNIILEEGKEILVGDVGQTVDDPYATFVKMLPDKDCRYALYDATYETKESKKEDLVFIFWAPESAPLKSKMIYASSKDAIKKKLTGIKHELQANCYEEVKDRCTLAEKLGGSAVISLEGKPL
  4. + IFNG mix: 1
  4. mL1dL2 + Dox + IFNG: 4

B2: LMNA (protein)
chain: METPSQRRATRSGAQASSTPLSPTRITRLQEKEDLQELNDRLAVYIDRVRSLETENAGLRLRITESEEVVSREVSGIKAAYEAELGDARKTLDSVAKERARLQLELSKVREEFKELKARNTKKEGDLIAAQARLKDLEALLNSKEAALSTALSEKRTLEGELHDLRGQVAKLEAALGEAKKQLQDEMLRRVDAENRLQTMKEELDFQKNIYSEELRETKRRHETRLVEIDNGKQREFESRLADALQELRAQHEDQVEQYKKELEKTYSAKLDNARQSAERNSNLVGAAHEELQQSRIRIDSLSAQLSQLQKQLAAKEAKLRDLEDSLARERDTSRRLLAEKEREMAEMRARMQQQLDEYQELLDIKLALDMEIHAYRKLLEGEEERLRLSPSPTSQRSRGRASSHSSQTQGGGSVTKKRKLESTESRSSFSQHARTSGRVAVEEVDEEGKFVRLRNKSNEDQSMGNWQIKRQNGDDPLLTYRFPPKFTLKAGQVVTIWAAGAGATHSPPTDLVWKAQNTWGCGNSLRTALINSTGEEVAMRKLVRSVTVVEDDEDEDGDDLLHHHHGSHCSSSGDPAEYNLRSRTVLCGTCGQPADKASASGSGAQVGGPISSGSSASSVTVTRSYRSVGGSGGGSFGDNLVTRSY
  4. + IFNG mix: 4
  4. mL1dL2 + Dox + IFNG: 8

B3: ACTN1 (protein)
chain: MDHYDSQQTNDYMQPEEDWDRDLLLDPAWEKQQRKTFTAWCNSHLRKAGTQIENIEEDFRDGLKLMLLLEVISGERLAKPERGKMRVHKISNVNKALDFIASKGVKLVSIGAEEIVDGNVKMTLGMIWTIILRFAIQDISVEETSAKEGLLLWCQRKTAPYKNVNIQNFHISWKDGLGFCALIHRHRPELIDYGKLRKDDPLTNLNTAFDVAEKYLDIPKMLDAEDIVGTARPDEKAIMTYVSSFYHAFSGAQKAETAANRICKVLAVNQENEQLMEDYEKLASDLLEWIRRTIPWLENRVPENTMHAMQQKLEDFRDYRRLHKPPKVQEKCQLEINFNTLQTKLRLSNRPAFMPSEGRMVSDINNAWGCLEQVEKGYEEWLLNEIRRLERLDHLAEKFRQKASIHEAWTDGKEAMLRQKDYETATLSEIKALLKKHEAFESDLAAHQDRVEQIAAIAQELNELDYYDSPSVNARCQKICDQWDNLGALTQKRREALERTEKLLETIDQLYLEYAKRAAPFNNWMEGAMEDLQDTFIVHTIEEIQGLTTAHEQFKATLPDADKERLAILGIHNEVSKIVQTYHVNMAGTNPYTTITPQEINGKWDHVRQLVPRRDQALTEEHARQQHNERLRKQFGAQANVIGPWIQTKMEEIGRISIEMHGTLEDQLSHLRQYEKSIVNYKPKIDQLEGDHQLIQEALIFDNKHTNYTMEHIRVGWEQLLTTIARTINEVENQILTRDAKGISQEQMNEFRASFNHFDRDHSGTLGPEEFKACLISLGYDIGNDPQGEAEFARIMSIVDPNRLGVVTFQAFIDFMSRETADTDTADQVMASFKILAGDKNYITMDELRRELPPDQAEYCIARMAPYTGPDSVPGALDYMSFSTALYGESDL
  4. + IFNG mix: 9
  4. mL1dL2 + Dox + IFNG: 22

B4: CAVIN1 (protein)
chain: MEDPTLYIVERPLPGYPDAEAPEPSSAGAQAAEEPSGAGSEELIKSDQVNGVLVLSLLDKIIGAVDQIQLTQAQLEERQAEMEGAVQSIQGELSKLGKAHATTSNTVSKLLEKVRKVSVNVKTVRGSLERQAGQIKKLEVNEAELLRRRNFKVMIYQDEVKLPAKLSISKSLKESEALPEKEGEELGEGERPEEDAAALELSSDEAVEVEEVIEESRAERIKRSGLRRVDDFKKAFSKEKMEKTKVRTRENLEKTRLKTKENLEKTRHTLEKRMNKLGTRLVPAERREKLKTSRDKLRKSFTPDHVVYARSKTAVYKVPPFTFHVKKIREGQVEVLKATEMVEVGADDDEGGAERGEAGDLRRGSSPDVHALLEITEESDAVLVDKSDSD
  4. + IFNG mix: 7
  4. mL1dL2 + Dox + IFNG: 16

B5: TUBB6 (protein)
chain: MREIVHIQAGQCGNQIGTKFWEVISDEHGIDPAGGYVGDSALQLERINVYYNESSSQKYVPRAALVDLEPGTMDSVRSGPFGQLFRPDNFIFGQTGAGNNWAKGHYTEGAELVDAVLDVVRKECEHCDCLQGFQLTHSLGGGTGSGMGTLLISKIREEFPDRIMNTFSVMPSPKVSDTVVEPYNATLSVHQLVENTDETYCIDNEALYDICFRTLKLTTPTYGDLNHLVSATMSGVTTSLRFPGQLNADLRKLAVNMVPFPRLHFFMPGFAPLTSRGSQQYRALTVPELTQQMFDARNMMAACDPRHGRYLTVATVFRGPMSMKEVDEQMLAIQSKNSSYFVEWIPNNVKVAVCDIPPRGLKMASTFIGNSTAIQELFKRISEQFSAMFRRKAFLHWFTGEGMDEMEFTEAESNMNDLVSEYQQYQDATANDGEEAFEDEEEEIDG
  4. mL1dL2 + Dox + IFNG: 23

B6: DBN1 (protein)
chain: AGVSFSGHRLELLAAYEEVIREESAADWALYTYEDGSDDLKLAASGEGGLQELSGHFENQKVMYGFCSVKDSQAALPKYVLINWVGEDVPDARKCACASHVAKVAEFFQGVDVIVNASSVEDIDAGAIGQRLSNGLARLSSPVLHRLRLREDENAEPVGTTYQKTDAAVEMKRINREQFWEQAKKEEELRKEEERKKALDERLRFEQERMEQERQEQEERERRYREREQQIEEHRRKQQTLEAEEAKRRLKEQSIFGDHRDEEEETHMKKSESEVEEAAAIIAQRPDNPREFFKQQERVASASAGSCDVPSPFNHRPGSHLDSHRRMAPTPIPTRSPSDSSTASTPVAEQIERALDEVTSSQPPPLPPPPPPAQETQEPSPILDSEETRAAAPQAWAGPMEEPPQAQAPPRGPGSPAEDLMFMESAEQAVLAAPVEPATADATEIHDAADTIETDTATADTTVANNVPPAATSLIDLWPGNGEGASTLQGEPRAPTPPSGTEVTLAEVPLLDEVAPEPLLPAGEGCATLLNFDELPEPPATFCDPEEVEGESLAAPQTPTLPSALEELEQEQEPEPHLLTNGETTQKEGTQASEGYFSQSQEEEFAQSEELCAKAPPPVFYNKPPEIDITCWDADPVPEEEEGFEGGD
  4. mL1dL2 + Dox + IFNG: 2

B7: TUBB (protein)
chain: MREIVHIQAGQCGNQIGAKFWEVISDEHGIDPTGTYHGDSDLQLDRISVYYNEATGGKYVPRAILVDLEPGTMDSVRSGPFGQIFRPDNFVFGQSGAGNNWAKGHYTEGAELVDSVLDVVRKEAESCDCLQGFQLTHSLGGGTGSGMGTLLISKIREEYPDRIMNTFSVVPSPKVSDTVVEPYNATLSVHQLVENTDETYCIDNEALYDICFRTLKLTTPTYGDLNHLVSATMSGVTTCLRFPGQLNADLRKLAVNMVPFPRLHFFMPGFAPLTSRGSQQYRALTVPELTQQVFDAKNMMAACDPRHGRYLTVAAVFRGRMSMKEVDEQMLNVQNKNSSYFVEWIPNNVKTAVCDIPPRGLKMAVTFIGNSTAIQELFKRISEQFTAMFRRKAFLHWYTGEGMDEMEFTEAESNMNDLVSEYQQYQDATAEEEEDFGEEAEEEA
  4. + IFNG mix: 19
  4. mL1dL2 + Dox + IFNG: 56

B8: WDR1 (protein)
chain: MPYEIKKVFASLPQVERGVSKIIGGDPKGNNFLYTNGKCVILRNIDNPALADIYTEHAHQVVVAKYAPSGFYIASGDVSGKLRIWDTTQKEHLLKYEYQPFAGKIKDIAWTEDSKRIAVVGEGREKFGAVFLWDSGSSVGEITGHNKVINSVDIKQSRPYRLATGSDDNCAAFFEGPPFKFKFTIGDHSRFVNCVRFSPDGNRFATASADGQIYIYDGKTGEKVCALGGSKAHDGGIYAISWSPDSTHLLSASGDKTSKIWDVSVNSVVSTFPMGSTVLDQQLGCLWQKDHLLSVSLSGYINYLDRNNPSKPLHVIKGHSKSIQCLTVHKNGGKSYIYSGSHDGHINYWDSETGENDSFAGKGHTNQVSRMTVDESGQLISCSMDDTVRYTSLMLRDYSGQGVVKLDVQPKCVAVGPGGYAVVVCIGQIVLLKDQRKCFSIDNPGYEPEVVAVHPGGDTVAIGGVDGNVRLYSILGTTLKDEGKLLEAKGPVTDVAYSHDGAFLAVCDASKVVTVFSVADGYSENNVFYGHHAKIVCLAWSPDNEHFASGGMDMMVYVWTLSDPETRVKIQDAHRLHHVSSLAWLDEHTLVTTSHDASVKEWTITY
  4. mL1dL2 + Dox + IFNG: 2
